Measurements published in PMC8860611.

Target: native CA lattice tubes (HIV-1, UniProt P12493 133-363)
Experiment: filter binding

B1: CA15-2 (1-104) (structured_RNA)
RNA: GGAAGAAGAGAAUCAUACACAAGAUCGACGUACCUCAGGGUGGUGUAUGACUGAGGUGAAGACUGUGAACCAUGGCAUGCGGGCAUAAGGUAGGUAAGUCCAUA
binding result: binds
